Measured values taken from publication PMC9753469.

Biological target: MBP-KRAB (ZNF93 KRAB E35R), P35789
Experiment: SPR
Settings: chain shown with the change; MBP-KRAB immobilized on the chip; KAP1 RBCC as mobile phase

MBP-KRAB (ZNF93 KRAB E35R), P35789, sequence (P35789 2-71 E35R): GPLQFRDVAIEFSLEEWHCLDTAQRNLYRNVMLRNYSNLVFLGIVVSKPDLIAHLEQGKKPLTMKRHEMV

B1: m11; m9 KAP1:R311E; ZNF93 KRAB:E35R (protein)
chain: MAASAAAASAAAASAASGSPGPGEGSAGGEKRSTAPSAAASASASAAASSPAGGGAEALELLEHCGVCRERLRPEREPRLLPCLHSACSACLGPAAPAAANSSGDGGAAGDGTVVDCPVCKQQCFSKDIVENYFMRDSGSKAATDAQDANQCCTSCEDNAPATSYCVECSEPLCETCVEAHQRVKYTKDHTVRSTGPAKSRDGERTVYCNVHKHEPLVLFCESCDTLTCRDCQLNAHKDHQYQFLEDAVRNQRKLLASLVKRLGDKHATLQKSTKEVRSSIRQVSDVQKRVQVDVKMAILQIMKELNKRGEVLVNDAQKVTEGQQERLERQHWTMTKIQKHQEHILRFASWALESDNNTALLLSKKLIYFQLHRALKMIVDPVEPHGEMKFQWDLNAWTKSAEAFGKIVAERPGTNSTGPAPMAPPRAPGPLSKQGSGSSQPMEVQEGYGFGSGDDPYSSAEPHVSGVKRSRSGEGEVSGLMRKVPRVSLERLDLDLTADSQPPVFKVFPGSTTEDYNLIVIERGAAAAATGQPGTAPAGTPGAPPLAGMAIVKEEETEAAIGAPPTATEGPETKPVLMALAEGPGAEGPRLASPSGSTSSGLEVVAPEGTSAPGGGPGTLDDSATICRVCQKPGDLVMCNQCEFCFHLDCHLPALQDVPGEEWSCSLCHVLPDLKEEDGSLSLDGADSTGVVAKLSPANQRKCERVLLALFCHEPCRPLHQLATDSTFSLDQPGGTLDLTLIRARLQEKLSPPYSSPQEFAQDVGRMFKQFNKLTEDKADVQSIIGLQRFFETRMNEAFGDTKFSAVLVEPPPMSLPGAGLSSQELSGGPGDGP
For B1, the Kd was 71.8 nM.
